The target of test [1] is T1, human macrophage mannose receptor (human, UniProt P22897 19-1456).
T1 construct: whole, on cells; In the immunoprecipitations it came from cell lysates; also called human B11 antigen; B11 target antigen
T1 sequence (looked up): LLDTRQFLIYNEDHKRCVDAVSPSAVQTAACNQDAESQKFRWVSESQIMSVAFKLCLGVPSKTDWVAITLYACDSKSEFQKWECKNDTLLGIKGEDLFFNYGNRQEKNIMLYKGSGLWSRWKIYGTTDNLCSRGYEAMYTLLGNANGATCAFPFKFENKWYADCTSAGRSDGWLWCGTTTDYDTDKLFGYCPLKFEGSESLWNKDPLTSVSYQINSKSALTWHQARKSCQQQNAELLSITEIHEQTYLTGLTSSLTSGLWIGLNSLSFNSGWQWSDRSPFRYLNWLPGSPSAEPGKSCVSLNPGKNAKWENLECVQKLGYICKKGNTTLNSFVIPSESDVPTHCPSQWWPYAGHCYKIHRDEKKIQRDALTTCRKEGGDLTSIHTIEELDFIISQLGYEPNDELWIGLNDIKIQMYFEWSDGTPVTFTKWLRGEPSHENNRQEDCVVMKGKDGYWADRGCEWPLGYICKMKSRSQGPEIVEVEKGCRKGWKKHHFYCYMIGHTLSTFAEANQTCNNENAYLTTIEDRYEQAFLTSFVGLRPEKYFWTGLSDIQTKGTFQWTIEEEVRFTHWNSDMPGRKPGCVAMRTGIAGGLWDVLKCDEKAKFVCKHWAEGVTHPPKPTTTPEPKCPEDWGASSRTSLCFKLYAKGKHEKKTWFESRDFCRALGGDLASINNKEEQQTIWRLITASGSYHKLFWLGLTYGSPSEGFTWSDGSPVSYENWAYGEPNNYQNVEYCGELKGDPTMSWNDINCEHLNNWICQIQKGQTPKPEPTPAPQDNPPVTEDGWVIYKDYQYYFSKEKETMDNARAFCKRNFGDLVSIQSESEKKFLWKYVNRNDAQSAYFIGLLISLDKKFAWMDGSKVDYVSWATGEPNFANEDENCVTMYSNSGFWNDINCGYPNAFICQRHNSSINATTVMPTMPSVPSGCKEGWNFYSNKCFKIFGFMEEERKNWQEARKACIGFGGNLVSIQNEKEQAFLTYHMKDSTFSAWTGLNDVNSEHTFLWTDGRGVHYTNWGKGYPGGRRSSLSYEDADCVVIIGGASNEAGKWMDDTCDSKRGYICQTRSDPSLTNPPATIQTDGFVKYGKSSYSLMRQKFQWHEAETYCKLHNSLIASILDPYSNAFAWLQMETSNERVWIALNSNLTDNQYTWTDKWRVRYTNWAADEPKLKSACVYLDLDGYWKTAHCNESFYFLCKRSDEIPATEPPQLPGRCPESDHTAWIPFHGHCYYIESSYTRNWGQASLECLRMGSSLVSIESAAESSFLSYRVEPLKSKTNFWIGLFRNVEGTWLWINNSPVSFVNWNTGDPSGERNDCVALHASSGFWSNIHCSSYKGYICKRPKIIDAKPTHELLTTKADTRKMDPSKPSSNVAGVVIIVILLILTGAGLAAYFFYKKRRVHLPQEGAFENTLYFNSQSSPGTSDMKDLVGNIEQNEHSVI
Nature of the test: flow cytometry, hybridoma supernatant on monocyte-derived human dendritic cells. Here is the method: The hybridomas secreting human IgG were tested for reactivity with various types of blood cells by flow cytometry. Dendritic cells were prepared from adherent mononuclear cells by culturing for 5-7 days in media supplemented with GM-CSF and IL-4. Granulocytes (PMN), monocytes and lymphocytes were obtained from heparanized whole blood. The cells were incubated with hybridoma supernatants from IgG-positive clones at 4° C. Binding was detected with a FITC-labeled goat anti-human IgG(Fc) probe. The cell associated fluorescence was determined by analysis using a FACScalibur instrument.
For orientation: In flow cytometry, cells or beads pass a laser one at a time.

For test [2], the target named is T1, human macrophage mannose receptor. Nature of the test: flow cytometry on monocyte-derived dendritic cells, anti-human IgG-F(ab')2-PE probe. How it is done:
The reactivity of F(ab′)2 fragments of human monoclonal antibody B11 with dendritic cells from human tissues was evaluated by flow cytometry.
F(ab′)2 fragments were prepared by digestion of purified B11 mAb with pepsin under standard conditions. The F(ab′)2 fragments were purified by protein L chromatography. Dendritic cells, prepared fresh from human monocytes by culture in GM-CSF and IL-4, were incubated with whole antibody or F(ab′)2 antibody fragments for 1 hour at 4° C. The cells were washed before incubation with anti-human IgG-F(ab′)2-PE probe for 1 hour at 4° C. The cells were washed again prior to analysis using a FACScalibur instrument and Cellquest software.

These results are taken from patent US20030031667A1 (CELLDEX RESEARCH, published 2003).

B1: human monoclonal antibody B11 (antibody, human IgG1, V domains shown)
VH: EVQLVQSGAEVKKPGESLRISCKGSGDSFTTYWIGWVRQMPGKGLEWMGIIYPGDSDTIYSPSFQGQVTISADKSISTAYLQWSSLKASDTAMYYCTRGDRGVDYWGQGTLVTVSS
VL: DIQMTQSPSSLSASVGDRVTITCRASQGISRWLAWYQQKPEKAPKSLIYAASSLQSGVPSRFSGSGSGTDFTLTISGLQPEDFATYYCQQYNSYPRTFGQGTKVEIK
notes: Human IgG1 kappa from a HuMAb mouse hybridoma; also called B11 HuMab; mAb B11
As to B1, in test [1], the binding result is “binds”.

B2: F(ab')2 fragments of human monoclonal antibody B11 (other)
VH: B1 VH
VL: B1 VL
notes: See the note of m1 on the VH/VL conflict; also called B11 F(ab')2
B2: in test [2], the binding result is “binds”.
